According to paper PMC10109501 (PLOS Pathogens, 2023):

Molecular target: SARS-CoV-2 original 2019-CoV Spike, prefusion trimeric ectodomain (2P, GSAS, T4 foldon) (SARS-CoV-2, UniProt P0DTC2 14-1213)
Assay: BLI
Details: both partners purified

B1: cat ACE2-Fc (residues 19-615, mouse IgG2a Fc fusion) (Fc fusion)
chain: STTEELAKTFLEKFNHEAEELSYQSSLASWNYNTNITDENVQKMNEAGAKWSAFYEEQSKLAKTYPLAEIHNTTVKRQLQALQQSGSSVLSADKSQRLNTILNAMSTIYSTGKACNPNNPQECLLLEPGLDDIMENSKDYNERLWAWEGWRAEVGKQLRPLYEEYVALKNEMARANNYEDYGDYWRGDYEEEWTDGYNYSRSQLIKDVEHTFTQIKPLYQHLHAYVRAKLMDTYPSRISPTGCLPAHLLGDMWGRFWTNLYPLTVPFGQKPNIDVTDAMVNQSWDARRIFKEAEKFFVSVGLPNMTQGFWENSMLTEPGDSRKVVCHPTAWDLGKGDFRIKMCTKVTMDDFLTAHHEMGHIQYDMAYAVQPFLLRNGANEGFHEAVGEIMSLSAATPNHLKTIGLLSPGFSEDSETEINFLLKQALTIVGTLPFTYMLEKWRWMVFKGEIPKEQWMQKWWEMKREIVGVVEPVPHDETYCDPASLFHVANDYSFIRYYTRTIYQFQFQEALCRIAKHEGPLHKCDISNSSEAGKKLLQMLTLGKSKPWTLALEHVVGEKKMNVTPLLKYFEPLFTWLKEQNRNSFVGWNTDWRPYAD
- binding result: binds
